Measurements published in US10808017B2, “Ubiquitin variants and uses therof as 53BP1 inhibitors” (The Governing Council of the University of Toronto, priority 2016, dated 2020).

Key:
Format in all cases: binding
Conditions in all cases: 293T Flp-In/T-Rex extracts, LC-MS/MS, one column per replicate IP
[1] = molecular target: T1, HIST1H2BG (Homo sapiens, UniProt P62807); test: Flag IP-MS of i53/i53-DM baits: prey HIST1H2BG
T1 construct: endogenous in cells; host or cells: HEK293 Flp-In/T-REx
Procedure: (§1) Following immunoprecipitation of Flag-tagged i53 and i-53-DM from HEK293 Flp-In/T-REx cells, peptides were identified using LC-MS/MS. Proteins were digested in solution with trypsin (Sigma, T7575-1KT) and dried to completeness. For LC-MS/MS analysis, peptides were reconstituted in 5% formic acid and loaded onto a 12-15 cm fused silica column with pulled tip packed in-house with 3.5 μm Zorbax C18 (Agilent Technologies, Calif., USA).
(§2) i53 and i53-DM precipitates were analyzed using an LTQ (Thermo Scientific) coupled to an Agilent 1100 Series HPLC (Agilent Technologies). Peptides were eluted from the column using a 90 min period cycle with a linear gradient from 0% to 40% ACN in 0.1% formic acid. Tandem MS spectra were acquired in a data-dependent mode for the top 5 (LTQ) most abundant ions using collision-induced dissociation. Acquired spectra were searched against the human Refseq_V53 database using Mascot (Matrix Science).
(§3) 293T Flp-In/T-Rex cell lines were generated that expressed Flag-tagged i53 or i53-DM under the control of a tetracycline-inducible promoter as previously described. Nine IP-MS experiments were analyzed (3 biological replicate IPs each for control i53- and i53-DM expressing cell lines). The interacting proteins were identified by MASCOT to identify high-confidence interactors for i53. […]

[2] = molecular target: T2, CFL1 (Homo sapiens, UniProt P23528); test: Flag IP-MS of i53/i53-DM baits: prey CFL1
T2 construct: endogenous in cells; host or cells: HEK293 Flp-In/T-REx
T2 sequence (P23528 whole entry): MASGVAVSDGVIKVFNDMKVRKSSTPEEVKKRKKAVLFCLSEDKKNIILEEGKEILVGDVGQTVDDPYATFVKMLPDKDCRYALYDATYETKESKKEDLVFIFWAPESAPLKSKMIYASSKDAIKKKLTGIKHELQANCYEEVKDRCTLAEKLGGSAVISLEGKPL
Procedure: as §1, §2, §3

[3] = molecular target: T3, HIST2H2BE (Homo sapiens, UniProt Q16778); test: Flag IP-MS of i53/i53-DM baits: prey HIST2H2BE
T3 construct: endogenous in cells; host or cells: HEK293 Flp-In/T-REx cells
Procedure: as §1, §2, §3

[4] = molecular target: T4, TTC12 (Homo sapiens, UniProt Q9H892); test: Flag IP-MS of i53/i53-DM baits: prey TTC12
T4 construct: endogenous in cells; host or cells: HEK293 Flp-In/T-REx cells
T4 sequence (Q9H892 1-705): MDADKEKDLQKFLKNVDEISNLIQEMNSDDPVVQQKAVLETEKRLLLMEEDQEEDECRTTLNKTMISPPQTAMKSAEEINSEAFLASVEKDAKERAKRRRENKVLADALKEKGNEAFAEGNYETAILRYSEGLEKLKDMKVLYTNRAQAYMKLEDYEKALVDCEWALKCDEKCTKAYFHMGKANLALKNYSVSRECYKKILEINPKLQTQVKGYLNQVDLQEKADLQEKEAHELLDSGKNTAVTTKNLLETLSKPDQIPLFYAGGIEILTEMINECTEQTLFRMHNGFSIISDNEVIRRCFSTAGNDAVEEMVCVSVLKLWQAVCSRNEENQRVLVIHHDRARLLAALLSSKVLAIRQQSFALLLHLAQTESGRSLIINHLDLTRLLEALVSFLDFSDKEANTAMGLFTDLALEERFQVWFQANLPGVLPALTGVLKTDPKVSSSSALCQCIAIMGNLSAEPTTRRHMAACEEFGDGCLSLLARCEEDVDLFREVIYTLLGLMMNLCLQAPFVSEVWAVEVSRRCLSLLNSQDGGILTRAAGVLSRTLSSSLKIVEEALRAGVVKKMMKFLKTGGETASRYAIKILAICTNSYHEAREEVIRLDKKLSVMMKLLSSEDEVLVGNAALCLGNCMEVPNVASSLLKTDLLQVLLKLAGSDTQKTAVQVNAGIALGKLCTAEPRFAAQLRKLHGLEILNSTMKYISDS
Procedure: as §1, §2, §3

[5] = molecular target: T5, KRT6A (Homo sapiens, UniProt P02538); test: Flag IP-MS of i53/i53-DM baits: prey KRT6A
T5 construct: Following immunoprecipitation of Flag-tagged i53 and i-53-DM from HEK293 Flp-In/T-REx cells, peptides were identified using LC-MS/MS; endogenous in cells; host or cells: HEK293 Flp-In/T-REx cells
T5 sequence (P02538 1-564): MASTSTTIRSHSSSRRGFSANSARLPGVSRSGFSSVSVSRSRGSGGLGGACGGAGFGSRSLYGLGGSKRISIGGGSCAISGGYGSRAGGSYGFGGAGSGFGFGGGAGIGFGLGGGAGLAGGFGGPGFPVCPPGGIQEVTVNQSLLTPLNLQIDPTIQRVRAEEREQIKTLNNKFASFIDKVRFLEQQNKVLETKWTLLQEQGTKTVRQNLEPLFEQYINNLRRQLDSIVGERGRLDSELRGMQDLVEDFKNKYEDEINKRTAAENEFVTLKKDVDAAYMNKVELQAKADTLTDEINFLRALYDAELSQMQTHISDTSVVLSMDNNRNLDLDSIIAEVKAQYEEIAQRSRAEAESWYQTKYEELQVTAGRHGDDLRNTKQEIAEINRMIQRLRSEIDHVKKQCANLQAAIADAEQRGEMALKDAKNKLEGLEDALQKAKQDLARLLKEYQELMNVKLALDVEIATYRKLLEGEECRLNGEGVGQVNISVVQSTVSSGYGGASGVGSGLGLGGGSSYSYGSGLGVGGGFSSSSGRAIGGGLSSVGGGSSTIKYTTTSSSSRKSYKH
Procedure: as §1, §2, §3

[6] = molecular target: T6, VPS13C (Homo sapiens, UniProt Q709C8); test: Flag IP-MS of i53/i53-DM baits: prey VPS13C
T6 construct: endogenous in cells; host or cells: HEK293 Flp-In/T-REx cells
T6 sequence (Q709C8 whole entry): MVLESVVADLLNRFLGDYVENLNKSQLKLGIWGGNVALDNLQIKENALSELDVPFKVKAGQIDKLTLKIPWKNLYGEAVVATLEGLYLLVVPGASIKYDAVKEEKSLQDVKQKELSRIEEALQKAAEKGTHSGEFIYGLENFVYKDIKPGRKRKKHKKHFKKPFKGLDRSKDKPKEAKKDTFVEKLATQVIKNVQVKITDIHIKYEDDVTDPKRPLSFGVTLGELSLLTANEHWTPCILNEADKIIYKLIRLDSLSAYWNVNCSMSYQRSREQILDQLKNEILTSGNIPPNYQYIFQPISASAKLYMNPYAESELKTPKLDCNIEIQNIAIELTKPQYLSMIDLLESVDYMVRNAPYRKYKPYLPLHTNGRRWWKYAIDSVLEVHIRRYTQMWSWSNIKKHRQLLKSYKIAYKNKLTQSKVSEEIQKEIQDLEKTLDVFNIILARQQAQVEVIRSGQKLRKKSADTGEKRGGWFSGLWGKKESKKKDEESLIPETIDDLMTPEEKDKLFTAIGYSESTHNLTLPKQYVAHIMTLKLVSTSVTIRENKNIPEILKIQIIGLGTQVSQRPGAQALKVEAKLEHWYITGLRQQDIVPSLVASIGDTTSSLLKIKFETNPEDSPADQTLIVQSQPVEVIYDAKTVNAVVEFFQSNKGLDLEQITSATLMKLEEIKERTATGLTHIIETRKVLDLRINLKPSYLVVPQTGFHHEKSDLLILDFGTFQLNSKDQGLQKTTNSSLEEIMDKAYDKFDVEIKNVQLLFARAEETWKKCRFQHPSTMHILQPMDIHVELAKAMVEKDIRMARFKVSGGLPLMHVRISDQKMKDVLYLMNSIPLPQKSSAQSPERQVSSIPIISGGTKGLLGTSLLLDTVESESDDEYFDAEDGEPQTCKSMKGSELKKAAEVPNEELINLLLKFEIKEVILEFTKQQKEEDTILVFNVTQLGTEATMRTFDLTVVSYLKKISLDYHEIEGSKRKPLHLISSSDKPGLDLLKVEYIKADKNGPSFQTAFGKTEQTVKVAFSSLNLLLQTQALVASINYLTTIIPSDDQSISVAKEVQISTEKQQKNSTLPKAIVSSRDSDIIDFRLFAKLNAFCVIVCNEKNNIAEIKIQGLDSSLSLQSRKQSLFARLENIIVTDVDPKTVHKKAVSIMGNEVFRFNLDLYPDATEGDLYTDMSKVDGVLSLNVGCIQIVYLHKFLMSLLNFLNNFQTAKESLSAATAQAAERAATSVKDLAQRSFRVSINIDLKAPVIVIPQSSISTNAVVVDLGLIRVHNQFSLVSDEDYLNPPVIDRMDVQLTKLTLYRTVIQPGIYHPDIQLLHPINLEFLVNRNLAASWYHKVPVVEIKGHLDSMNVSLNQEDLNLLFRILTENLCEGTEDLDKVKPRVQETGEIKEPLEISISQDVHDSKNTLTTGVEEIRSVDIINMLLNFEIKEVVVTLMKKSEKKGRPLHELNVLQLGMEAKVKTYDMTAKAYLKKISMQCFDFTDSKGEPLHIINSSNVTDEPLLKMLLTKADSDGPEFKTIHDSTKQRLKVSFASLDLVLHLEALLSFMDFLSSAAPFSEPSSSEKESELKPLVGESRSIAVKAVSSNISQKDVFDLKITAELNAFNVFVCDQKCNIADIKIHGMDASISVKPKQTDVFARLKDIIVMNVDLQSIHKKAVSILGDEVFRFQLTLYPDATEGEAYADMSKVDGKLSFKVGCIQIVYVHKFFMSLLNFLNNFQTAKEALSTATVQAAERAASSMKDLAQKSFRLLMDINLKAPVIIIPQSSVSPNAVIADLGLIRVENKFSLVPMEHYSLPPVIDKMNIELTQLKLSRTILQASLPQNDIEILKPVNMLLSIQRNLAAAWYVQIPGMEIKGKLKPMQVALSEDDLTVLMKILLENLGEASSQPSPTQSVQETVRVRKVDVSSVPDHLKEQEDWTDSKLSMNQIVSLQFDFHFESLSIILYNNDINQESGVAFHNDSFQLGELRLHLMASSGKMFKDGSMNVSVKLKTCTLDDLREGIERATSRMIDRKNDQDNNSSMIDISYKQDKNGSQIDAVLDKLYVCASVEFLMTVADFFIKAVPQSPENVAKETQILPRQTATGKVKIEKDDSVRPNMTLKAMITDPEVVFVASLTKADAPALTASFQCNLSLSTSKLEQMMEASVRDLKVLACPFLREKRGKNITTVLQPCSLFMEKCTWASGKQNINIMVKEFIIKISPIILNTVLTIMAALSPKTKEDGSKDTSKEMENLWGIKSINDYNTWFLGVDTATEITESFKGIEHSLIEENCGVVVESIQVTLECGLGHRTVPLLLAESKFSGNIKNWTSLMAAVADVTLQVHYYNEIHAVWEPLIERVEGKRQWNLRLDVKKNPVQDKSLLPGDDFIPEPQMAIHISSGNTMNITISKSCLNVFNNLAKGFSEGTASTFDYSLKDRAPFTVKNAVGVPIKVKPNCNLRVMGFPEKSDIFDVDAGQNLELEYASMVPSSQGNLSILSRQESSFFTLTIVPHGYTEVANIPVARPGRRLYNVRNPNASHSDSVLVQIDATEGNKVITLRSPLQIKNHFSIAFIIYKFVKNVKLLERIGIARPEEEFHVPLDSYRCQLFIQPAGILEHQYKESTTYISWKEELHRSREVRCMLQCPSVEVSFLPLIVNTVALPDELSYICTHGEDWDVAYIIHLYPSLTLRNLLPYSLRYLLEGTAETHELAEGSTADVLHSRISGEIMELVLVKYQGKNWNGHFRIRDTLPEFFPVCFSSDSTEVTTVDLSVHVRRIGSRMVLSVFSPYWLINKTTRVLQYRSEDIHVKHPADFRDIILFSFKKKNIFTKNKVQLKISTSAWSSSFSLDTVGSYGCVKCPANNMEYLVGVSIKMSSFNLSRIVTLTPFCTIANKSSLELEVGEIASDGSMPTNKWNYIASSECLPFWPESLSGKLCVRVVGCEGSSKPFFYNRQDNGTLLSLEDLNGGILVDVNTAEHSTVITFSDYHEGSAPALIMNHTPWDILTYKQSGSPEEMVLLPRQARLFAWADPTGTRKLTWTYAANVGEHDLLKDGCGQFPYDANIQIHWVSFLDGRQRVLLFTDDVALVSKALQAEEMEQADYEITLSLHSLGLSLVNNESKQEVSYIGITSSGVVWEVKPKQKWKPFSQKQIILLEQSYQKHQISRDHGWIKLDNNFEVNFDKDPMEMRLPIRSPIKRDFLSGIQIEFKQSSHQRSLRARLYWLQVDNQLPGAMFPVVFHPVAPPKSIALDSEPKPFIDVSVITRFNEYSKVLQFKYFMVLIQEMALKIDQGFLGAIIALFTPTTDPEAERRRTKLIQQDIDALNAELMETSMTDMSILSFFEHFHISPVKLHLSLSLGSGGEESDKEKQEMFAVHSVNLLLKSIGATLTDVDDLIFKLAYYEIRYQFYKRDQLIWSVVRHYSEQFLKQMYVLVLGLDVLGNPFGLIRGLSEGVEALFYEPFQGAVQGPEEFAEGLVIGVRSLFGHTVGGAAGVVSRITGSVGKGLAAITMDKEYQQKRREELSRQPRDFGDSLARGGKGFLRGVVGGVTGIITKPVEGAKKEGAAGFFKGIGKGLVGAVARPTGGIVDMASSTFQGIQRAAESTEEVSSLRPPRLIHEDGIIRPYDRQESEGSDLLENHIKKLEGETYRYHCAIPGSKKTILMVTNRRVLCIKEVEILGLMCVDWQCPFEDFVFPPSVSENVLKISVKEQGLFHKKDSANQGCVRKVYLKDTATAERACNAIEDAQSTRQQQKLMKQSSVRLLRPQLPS
Procedure: as §1, §2, §3

[7] = molecular target: T7, RBMXL1 (Homo sapiens, UniProt Q96E39); test: Flag IP-MS of i53/i53-DM baits: prey RBMXL1
T7 construct: endogenous in cells; host or cells: HEK293 Flp-In/T-REx cells
T7 sequence (Q96E39 whole entry): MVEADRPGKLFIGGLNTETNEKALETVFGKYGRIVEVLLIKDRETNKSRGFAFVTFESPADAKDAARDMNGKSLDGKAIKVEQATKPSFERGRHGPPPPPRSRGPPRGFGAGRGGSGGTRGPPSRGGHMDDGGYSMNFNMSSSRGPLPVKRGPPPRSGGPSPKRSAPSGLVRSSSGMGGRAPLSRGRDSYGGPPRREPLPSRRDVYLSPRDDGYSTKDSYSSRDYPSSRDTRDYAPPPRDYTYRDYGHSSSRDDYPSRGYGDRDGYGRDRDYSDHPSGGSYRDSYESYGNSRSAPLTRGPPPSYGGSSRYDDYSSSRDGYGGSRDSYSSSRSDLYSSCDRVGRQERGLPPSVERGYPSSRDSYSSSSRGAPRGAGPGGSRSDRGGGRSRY
Procedure: as §1, §2, §3

[8] = molecular target: T8, RERGL (Homo sapiens, UniProt Q9H628); test: Flag IP-MS of i53/i53-DM baits: prey RERGL
T8 construct: endogenous in cells; host or cells: HEK293 Flp-In/T-REx cells
T8 sequence (Q9H628 1-204): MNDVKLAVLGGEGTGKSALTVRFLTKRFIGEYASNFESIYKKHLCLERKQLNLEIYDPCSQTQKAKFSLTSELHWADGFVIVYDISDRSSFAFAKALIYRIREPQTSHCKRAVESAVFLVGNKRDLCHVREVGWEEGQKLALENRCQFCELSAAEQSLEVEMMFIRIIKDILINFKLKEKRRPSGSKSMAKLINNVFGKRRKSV
Procedure: as §1, §2, §3

[9] = molecular target: T9, RPL29 (Homo sapiens, UniProt P47914); test: Flag IP-MS of i53/i53-DM baits: prey RPL29
T9 construct: endogenous in cells; host or cells: HEK293 Flp-In/T-REx cells
Procedure: as §1, §2, §3

[10] = molecular target: T10, TXNDC12 (Homo sapiens, UniProt O95881); test: Flag IP-MS of i53/i53-DM baits: prey TXNDC12
T10 construct: endogenous in cells; host or cells: HEK293 Flp-In/T-REx
T10 sequence (O95881 27-172): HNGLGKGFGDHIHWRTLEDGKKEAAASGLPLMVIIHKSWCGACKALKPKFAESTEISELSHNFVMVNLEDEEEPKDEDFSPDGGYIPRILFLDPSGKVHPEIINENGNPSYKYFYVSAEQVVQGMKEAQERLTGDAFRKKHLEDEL
Procedure: as §1, §2, §3

Row | Total peptides, HIST1H2BG [1] | Total peptides, CFL1 [2] | Total peptides, HIST2H2BE [3] | Total peptides, TTC12 [4] | Total peptides, KRT6A [5] | Total peptides, VPS13C [6] | Total peptides, RBMXL1 [7] | Total peptides, RERGL [8] | Total peptides, RPL29 [9] | Total peptides, TXNDC12 [10] | Substance
1 | 4 | 6 | – | – | – | – | – | – | – | – | i53: UbvG08 with C-terminal di-glycine removed and I44A mutation; genetically encoded inhibitor of 53BP1
2 | – | – | 3 | 3 | 3 | 5 | 3 | 2 | 3 | 2 | i53-DM: 53BP1-binding deficient mutant of i53 (P69L, L70V)
